Source: patent US20230265151A1, “GIP/GLP1 CO-AGONIST COMPOUNDS” (priority 2020, published 2023)
*1 amine or outer side, *2 acyl side, *3 side chain or, on linkers, in order; H or OH if unused. Where no end group is shown, it is not given here. Side-chain parts run from the residue outwards. [ ]: non-standard residue; d: D form. The star is where a group is joined. αMePhe(2-F) = C[C@](N)(Cc1ccccc1F)C(=O)O; γGlu = O=C(O)[C@H](CCC(=O)[*:2])N[*:1]; C14 diacid = O=C(O)CCCCCCCCCCCCC(=O)*; αMeY = C[C@](N)(Cc1ccc(O)cc1)C(=O)O; αMeF = C[C@](N)(Cc1ccccc1)C(=O)O; αMeL = CC(C)C[C@](C)(N)C(=O)O; Orn = NCCC[C@H](N)C(=O)O; AEEA = NCCOCCOCC(=O)O; Aib = CC(C)(N)C(=O)O

T1: human GIP receptor (human, UniProt P48546 22-466)
T1 sequence (looked up): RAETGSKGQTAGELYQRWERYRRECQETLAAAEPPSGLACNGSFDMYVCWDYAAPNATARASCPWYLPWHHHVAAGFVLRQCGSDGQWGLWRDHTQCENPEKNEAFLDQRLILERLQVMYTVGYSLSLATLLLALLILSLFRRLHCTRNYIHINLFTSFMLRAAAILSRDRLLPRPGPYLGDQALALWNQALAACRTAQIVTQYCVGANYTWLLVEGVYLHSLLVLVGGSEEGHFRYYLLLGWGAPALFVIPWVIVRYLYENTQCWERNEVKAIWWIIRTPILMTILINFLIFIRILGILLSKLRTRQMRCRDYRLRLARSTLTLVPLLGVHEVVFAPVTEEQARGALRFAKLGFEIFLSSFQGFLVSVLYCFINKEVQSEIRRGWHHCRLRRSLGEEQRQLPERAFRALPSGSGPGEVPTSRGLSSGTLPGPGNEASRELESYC


How the values were obtained:
Assay in all cases: cell-based or functional assay
[1] = target: human glucagon receptor (human, UniProt P47871 26-477)
[2] = target: T1, human GIP receptor
[3] = target: human GLP-1 receptor (human, UniProt P43220 24-463)

| Binder | EC50, cAMP [1] | EC50, cAMP [2] | EC50, cAMP [3] | Emax, cAMP [3] | Emax, cAMP [2] |
| --- | --- | --- | --- | --- | --- |
| YXEGTXTSDXSIXLDXKAQXEXIKXLIEGGPSSGAPPPS (Aib2, αMeF(2F)6, Ac5c10, αMeL13, Orn16, Aib20, αMeF22, αMeF25, K17 and K24: K(AEEA2-(γ-Glu)-CO-(CH2)12-CO2H), C-terminal NH2) [Example 124] | > 9950 nM | 0.1 nM | 1.24 nM | 93.3% |  |
| YXEGTXTSDXSIXLDXKAQXEFIXXLIEGGKSSGAPPPS (Aib2, αMeF(2F)6, 4TAA10, αMeL13, Orn16, Aib20, D-Glu24, αMeY25, K17 and K31: K(AEEA2-(γ-Glu)-CO-(CH2)12-CO2H), C-terminal NH2) [Example 144] | > 9950 nM | 0.0193 nM | 3.47 nM |  | 90% |
| YXEGTXTSDXSIXLDXKAQXEFIKXLIEGGPSSGAPPPS (Aib2, αMeF(2F)6, 4Pal10, αMeL13, Orn16, Aib20, αMeY25, K17 and K24: K(AEEA2-(γ-Glu)-(10-(4-carboxyphenoxy)decanoyl)), C-terminal NH2) [Example 128] | > 9950 nM | 0.0232 nM | 0.293 nM |  |  |
| YXEGTXTSDVSIXLDXKAQXEXIKXLIEGGPSSGAPPPS (Aib2, αMeF(2F)6, αMeL13, Orn16, Aib20, αMeF22, αMeF25, K17 and K24: K(AEEA2-(γ-Glu)-CO-(CH2)12-CO2H), C-terminal NH2) [Example 122] | > 9950 nM | 0.064 nM | 0.41 nM | 94.3% |  |
| YXEGTXTSDXSIXLDXKAQXEFIXXLIEGKPSSGAPPPS (Aib2, αMeF(2F)6, 4Pal10, αMeL13, Orn16, Aib20, D-Glu24, αMeY25, K17 and K30: K(AEEA2-(γ-Glu)-(4-(4-tert-butylphenyl)butanoyl)), C-terminal NH2) [Example 134] | > 9950 nM | 0.0238 nM | 0.577 nM |  |  |
| YXEGTXTSDXSIXLDXKAQXEFIKXLIEGGPSSGAPPPS (Aib2, αMeF(2F)6, 4Pal10, αMeL13, Orn16, Aib20, αMeY25, K17 and K24: K(AEEA2-(γ-Glu)-CO-(CH2)10-CH3), C-terminal NH2) [Example 138] | > 9950 nM | 0.0197 nM | 0.267 nM |  |  |
| YXEGTXTSDXSIXLDXKAQXEFIXXLIEGKPSSGAPPPS (Aib2, αMeF(2F)6, 4Pal10, αMeL13, Orn16, Aib20, D-Glu24, αMeY25, K17 and K30: K(AEEA2-(γ-Glu)-CO-(CH2)10-CH3), C-terminal NH2) [Example 140] | > 9950 nM | 0.0121 nM | 0.131 nM |  | 98.5% |
| YXEGTXTSDXSIXLDXKAQXEXIXXLIEGGKSSGAPPPS (Aib2, αMeF(2F)6, 4Pal10, αMeL13, Orn16, Aib20, ChA22, D-Glu24, αMeY25, K17 and K31: K(AEEA2-(γ-Glu)-CO-(CH2)12-CO2H), C-terminal NH2) [Example 148] | > 9950 nM | 0.0209 nM | 1.77 nM | 94.5% |  |
| YXEGTXTSDXSIXLDXKAQXKFIXXLIEGGPSSGAPPPS (Aib2, αMeF(2F)6, 4Pal10, αMeL13, Orn16, Aib20, D-Glu24, αMeY25, K17 and K21: K(AEEA2-(γ-Glu)-CO-(CH2)10-CH3), C-terminal NH2) [Example 137] | > 9950 nM | 0.0116 nM | 0.134 nM |  |  |
| YXEGTXTSDXSIXLDXKAQXEXIXXLIEGGKSSGAPPPS (Aib2, αMeF(2F)6, 4Pal10, αMeL13, Orn16, Aib20, Bzt22, D-Glu24, αMeY25, K17 and K31: K(AEEA2-(γ-Glu)-CO-(CH2)12-CO2H), C-terminal NH2) [Example 147] | > 9950 nM | 0.0229 nM | 0.338 nM | 93.5% |  |
| YXEGTXTSDXSIXLDXKAQXEFIXXLIEGGKSSGAPPPS (Aib2, αMeF(2F)6, 4Pal10, αMeL13, Orn16, Aib20, D-Glu24, αMeY25, K17 and K31: K(AEEA-(γ-Glu)-(10-(4-carboxyphenoxy)decanoyl)), C-terminal NH2) [Example 12] | > 9950 nM | 0.0127 nM | 0.423 nM |  |  |
| YXEGTXTSDXSIXLDXKAQXEFIXXLIEGGKSSGAPPPS (Aib2, αMeF(2F)6, 4Pal10, αMeL13, Orn16, Aib20, D-Glu24, αMeY25, K17 and K31: K(AEEA2-(γ-Glu)-(8-(4-carboxyphenoxy)octanoyl)), C-terminal NH2) [Example 126] | > 9950 nM | 0.0472 nM | 1.69 nM |  |  |
| YXEGTXTSDXSIXLDXKAQXEFIXXLIEGGKSSGAPPPS (Aib2, αMeF(2F)6, 4Pal10, αMeL13, Orn16, Aib20, D-Glu24, αMeY25, K17 and K31: K(AEEA-(γ-Glu)-CO-(CH2)10-CH3), C-terminal NH2) [Example 14] | > 9950 nM | 0.00802 nM | 0.0884 nM |  |  |
| YXEGTXTSDXSIXLDXKAQXEFIXXLIKGGPSSGAPPPS (Aib2, αMeF(2F)6, 4Pal10, αMeL13, Orn16, Aib20, D-Glu24, αMeY25, K17 and K28: K(AEEA2-(γ-Glu)-(10-(4-carboxyphenoxy)decanoyl)), C-terminal NH2) [Example 129] | > 9950 nM | 0.0248 nM | 1.28 nM |  |  |
| Y[Aib]EGT[αMePhe(2-F)]TSDV[Aib]I[αMeL]LD[Orn]K([AEEA-AEEA-γGlu-C14 diacid])AQ[Aib]E[αMeF]IK([AEEA-AEEA-γGlu-C14 diacid])[αMeF]LIEGGPSSGAPPPS-NH2 [Example 123] | > 9950 nM | 0.101 nM | 0.508 nM | 96.3% | 94.9% |
| YXEGTXTSDXSIXLDXKAQXXFIXXLIEGGKSSGAPPPS (Aib2, αMeF(2F)6, 4Pal10, αMeL13, Orn16, Aib20, Orn21, D-Glu24, αMeY25, K17 and K31: K(AEEA2-(γ-Glu)-CO-(CH2)12-CO2H), C-terminal NH2) [Example 150] | > 9950 nM | 0.0268 nM | 0.455 nM |  |  |
| YXEGTXTSDXSIXLDXKAQXEFIXXLIXGGKSSGAPPPS (Aib2, αMeF(2F)6, 4Pal10, αMeL13, Orn16, Aib20, D-Glu24, αMeY25, Orn28, K17 and K31: K(AEEA2-(γ-Glu)-CO-(CH2)12-CO2H), C-terminal NH2) [Example 151] | > 9950 nM | 0.0197 nM | 0.546 nM |  |  |
| YXEGTXTSDXSIXLDXKAQXEFIXXLIEGXKSSGAPPPS (Aib2, αMeF(2F)6, 4Pal10, αMeL13, Orn16, Aib20, D-Glu24, αMeY25, Orn30, K17 and K31: K(AEEA2-(γ-Glu)-CO-(CH2)12-CO2H), C-terminal NH2) [Example 152] | > 9950 nM | 0.0416 nM | 3.91 nM |  | 97.9% |
| Y[Aib]EGT[αMePhe(2-F)]TSDV[Aib]I[αMeL]LD[Orn]K([AEEA-AEEA-γGlu-C14 diacid])AQ[Aib]E[αMeF]IK([AEEA-AEEA-γGlu-C14 diacid])[αMeY]LIEGGPSSGAPPPS-NH2 [Example 119] | > 9950 nM | 0.0863 nM | 0.351 nM | 99.4% |  |
